Measured values published in the nanobody polyreactivity screen of Harvey et al. (2022).

Assay: yeast display, Sf9 membrane polyspecificity reagent, FACS + sequencing; frameworks hold sequencing errors
Summary of the method: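 A synthetic nanobody library was expressed on Saccharomyces cerevisiae BJ5465 by galactose induction for 36–48 hours. The library was stained for 1 hour at 4 °C with 10% biotinylated, detergent-solubilized Sf9 membrane reagent and enriched with streptavidin microbeads before FACS. Low and high (top ~1%) gates were set on anti-HA fluorescence for expression and streptavidin fluorescence for reagent binding, and each polyreactivity label reflects the gate of origin.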

| Sequence | polyreactivity (PSR sort gate) |
| --- | --- |
| QVQIVESGGGLVQAGGSLRISCAASGRTFRWYAMGWYRQAPGKERELVASITWSGGSTYYADSVKGRFTISRDNAKNSVYLQMNSLKPEDTAVYYCAAEKRYTYVGGPFNYWGQGIQVTVSS | high polyreactivity |
| QVQIVESGGGLVQAGGSLRLICAASGSTFGLNAMGWYRQAPGKERELVAAITRSDITNYADSVKGRFTISRDNAKNTVYLKLNSLKPEDTAVYYCNKTPDRHRRYFGYGYWGQGTLVTVSS | low polyreactivity |
| QVQIVESGGGLVQAGGSLRLICAASGYTFTIYAMGWYRQAPGKERELVAAITTIGGRTYYADSVKGRFTISRDNAKNTVYLQMNSLKPEATAVYYCAARARVEGGYRGKFGYWGQGTQLTVSS | high polyreactivity |
| QVQIVESGGGLVQAGGSLRLRCAASGRIFAYYAMGWYRQAPGKERELVAAISRSGVSTYYADSVKGRFTISRDNAKNTVYLQMNSLKPEDTAVYYCAARWRSGFTSGDYWGQGTQVTVSS | low polyreactivity |
| QVQIVESGGGLVQAGGSLRLRCAASGRIIYKNAMGWYRQAPGKERELVAAITTSGGSTYYADSVKGRFTISRDNSKNTVYLEMNSLKPEDTAVYYCATRGHYRQTINYWGQGTQVTVSS | high polyreactivity |
| QVQIVESGGGLVQAGGSLRLSCAASGFIFDNNAMGWSRQAPWKESELFATITSGGRTNYADSVKGRFTISRDNAKNTVYLRMNCLKPEDTAVYYCAAFYYLCSRRKTRDYWGQGTQVTVSS | low polyreactivity |
| QVQIVESGGGLVQAGGSLRLSCAASGFTFRGYAMGCYRQAPAKERELVAAISRSGGSTNYADSVKGRFTISRDNAKNTVYLKMNSMKPEDTAVYYCAAGWNPYDYWGQGTQVTVSS | high polyreactivity |
| QVQIVESGGGLVQAGGSLRLSCAASGIFYAMGWYRQAPWTKRELDDAISSVGSTNYADSVKGRFSISRDNAKNTVYLQMNSLKPEDTAVYYCAAYFYTYPVDRYGSYYWGQVTQVTVSS | low polyreactivity |
| QVQIVESGGGLVQAGGSLRLSCAASGIIFRYYAMGWYRQAPGKERELVAAISSSGVSTYYADSVKGRFTISRDYAKNTVYLQMNSLKPEDTAVYYCAAVTTWRIDYWGQGTQVNVSS | high polyreactivity |
| QVQIVESGGGLVQAGGSLRLSCAASGITFHDYAMGWDRQEPGQERELVATIRSSTYYADSVKGRFTISRDTAKNTVYLQMNSLKTEDTAVYYCNVRLSYSYISPSDWNFDYWGQGTQVTVSS | low polyreactivity |
| QVQIVESGGGLVQAGGSLRLSCAASGITFRRNAMGWYRQAPGKERELVAVITSVGTTYYADSVKGRFTISRDNAKNTVYLQMNSLKPEDTAVYYCAARFYWGQGTQVTVSS | high polyreactivity |
| QVQIVESGGGLVQAGGSLRLSCAASGRIFCGNVMGWYRQAPGKERELVAAISGRGGRTYYAHSVKGRFTISRDNAKNTVYLQMNSLKPEDTAVYYCAASTGEEISGKRYNYWGQGTQVTVSS | high polyreactivity |
| QVQIVESGGGLVQAGGSLRLSCAASGRIFDSYAMGWYRQAPGKERELVAAISQNSGSTYYADSVKGRFTISRDNEKNTVYLQMNSLKPEDTAVYYCAATRKTKRFGYWGQGTQVTVSS | high polyreactivity |
| QVQIVESGGGLVQAGGSLRLSCAASGRIFHWYTMGWYRQAPGKERELVAAISGSGGSTHYADSVKGRFTISRDNAKNTVYLQMNSLKPEDTAVYYCAADDGFYGQDLDYWGQGTQVTVSS | low polyreactivity |
| QVQIVESGGGLVQAGGSLRLSCAASGRIFQPYAMGWYRQATGKERELVAAITRRAGSTYYADSVKGRFTISRDNANNTVYVQMNSLKPEDTAVYYCAARGLYWAYEMEYWGQGTQVTVSS | low polyreactivity |
| QVQIVESGGGLVQAGGSLRLSCAASGRIFTVYGKGWYRQAPGKERELVAAISWSGGGTYYADSVKGRFTISRDNAQNTVYLQKNSLKPDDTAVYYCNADRQYTWSLVFFSSEYDYWGQGTQVTVSS | low polyreactivity |
| QVQIVESGGGLVQAGGSLRLSCAASGRIFWAYAMGWYRQAPGKERELVAAITSGGSTYYADSVKGRFTISRDNAKNTVYLQMNRLKPDDTAVYYCAVGSNWVDDSPEDEYWGQGTQVTVSS | low polyreactivity |
| QVQIVESGGGLVQAGGSLRLSCAASGRIIKGYAMGWYRQAPGKDMELVADISEDGGSTYYADSVKGRFTISRDNAKNTVYLQMNSLKTEDTAVYFCAAEYYVVNYAIGYDYWGQGTQVTVSS | low polyreactivity |
| QVQIVESGGGLVQAGGSLRLSCAASGRTFVVNAMGWYRQAPGKERELVASISNKGSTYYADSVKGRFTISRDNAKNTVYLQMNSLNPEDTAVYYCAADEYWSWDGTRYGVHYYYWGQGTQVTVSS | low polyreactivity |
| QVQIVESGGGLVQAGGSLRLSCAASGRTFWGNAMGWYRQAPGKERELVASISSRGSSTYYADSVKGRFTISRDNAKNTVYLQMNSLKPEDTAVYYCAARTHYFPWPWYVWDYYSDGYWGQGTQVTVSS | low polyreactivity |
| QVQIVESGGGLVQAGGSLRLSCAASGRTLYQYSMGWYRQAPGKERELVAAITTSTGNTYYADSVKARFTISRDNAKYTVYSQMNSLKPEDTAVYYCAADTVWRLDYWGQGTQVTVSS | low polyreactivity |
| QVQIVESGGGLVQAGGSLRLSCAASGRTYKYYAMGWYRQAPGKERELDAGITSGSSTSYADSVKGRFTISRDNAKNTVYLQMNSLKPEDTAVYYCAAGIYPYRYDYWGQGTQVTVSS | high polyreactivity |

| Sequence | polyreactivity (PSR sort gate) |
| --- | --- |
| QVQIVESGGGLVQAGGSLRLSCAASGSIFSDYVMGWYRQAPRKERELVATISRGGGSTFYADSVKGRFTISRDYAKITVYLQMNSLKPEDTAVYYCAAPPGPSGAKYDYWGQGTQVSVSS | low polyreactivity |
| QVQIVESGGGLVQAGGSLRLSCAASGSIFVNNAMGWYRQAPGKVRELVARISFSGGSTYYADSVKGRFTISRDNAKNTVYLQMISLNPEDTAVYYCAKTVLRTESGWWIKFDYWGQVTQVTVSS | low polyreactivity |
| QVQIVESGGGLVQAGGSLRLSCAASGSIFYYYAMGWYRQAPGNERELVADISISGGSTYYADSVKGRFTISRDTAKNTVYLQMNSQKPEDTAVYYSAATSTYRSYLEYDYWGQGTQVTVSS | low polyreactivity |
| QVQIVESGGGLVQAGGSLRLSCAASGSISVPYGMGWYRQAPGKERELVAAISGGSTNYADSVKGRFTISRDNAKNTVYLQMNSLKPEDTAVYFCAADWWAWYTRYDYWGQGSQVTVSS | low polyreactivity |
| QVQIVESGGGLVQAGGSLRLSCAASGSTFPWYVMGWYRQAPGKERELVAAISWSGGRTYYADSVKGRFTISRDNAKNTVYLQMTRLKPEDRAVYYCAAEFKLVSHTYYYWGQGTQVTVSS | low polyreactivity |
| QVQIVESGGGLVQAGGSLRLSCAASGSTFSYNAMGWYRQAPGKERELVATISNTDSTNYADSVKGRFTISRDNAKNTLYLQMNSLKPEDTSVYSCAAVVSTVDGMEYWGQGTQVNVSS | low polyreactivity |
| QVQIVESGGGLVQAGGSLRLSCAASGSTFVDYDMGWYRQAPGKERELVAGITTGGSTNYADSVKGRFTISRDNAKNTVYLQMNRLKPEDTAVYYCAATVYGIYYYGRDRYDYWGQATQVTVSS | low polyreactivity |
| QVQIVESGGGLVQAGGSLRLSCAASGSTFYPNAMGWYRQAPGKERELVAAISRGTRTKYADSVKGRFTISRDNAKNTVYLQINSLKPEDTAVYYCAADTGKGLDWGQGTHVTVSS | high polyreactivity |
| QVQIVESGGGLVQAGGSLRLSCAASGYIFYPYTMGWYRQAPVKERQLVAAITWSGSTYYADSVKGRFTISRDNAKNTVYLQMNSLKPEDTAVYYCARESDWWREFPYDYWGHGTQVTVSS | low polyreactivity |
| QVQIVESGGGLVQAGGSLRLSCAASGYIVRNAMGWYRQAPGKERELVAAISRRGGRTYYADSVKGRFTISRDNAKNTVYLQMHSLKPEDTAVYYCNKLPGTPRSLATGDYWGQGTQVTVSS | high polyreactivity |
| QVQIVESGGGLVQAGGSLRLSCADSGRTLYRYGMGWYRQAPGKERELVDVIDRGGSTNYADSVKGRFTISRDNAKNTVYLLMNSLKPEDTAVYYCAKRWTAREPWRKGMGYWGQGTQVTVSS | high polyreactivity |
| QVQIVESGGGLVQAGGSLRLSCAPSGRIFRKYAMGWYRQAPGKERELVAAISVGGGSTRYADSVKGRFTISRDNAKNTVYLQMNSLKPEDTAVYYCAVKWFSGGYDYWGQGTQVNVSS | low polyreactivity |
| QVQIVESGGGLVQAGGSLRLSCDASGRIFTAYAMGWYRQAPGKERELVAAISSGDSTYYAYSVKGRFSISRDNAKNTLYLQMNSLNPEDTEVYYCATCVYPDFEYDSWGQGTQVTVSA | low polyreactivity |
| QVQIVESGGGLVQAGGSLRLSCSASGSTFPFYAMGWYRQAPGKERELVAAITRSGSRTYYADSVKGRFTISRDNAKNTVFLQMNSLKPEDTAVYYFAASSTDLYFWGQGTQVTVSS | high polyreactivity |
| QVQIVESGGGLVQAGGSLRLSWASSGRIFYSNAMGRYRQAPGKERELVAAISYSGDSTYYADSVQGRFTISRDNAKNTGYFQMNSLKPEVTAVYYCAAETYVGEDYWGQGTQETVSS | high polyreactivity |
| QVQIVESGGGLVQAGGSLRLTCAASGSIFTVYAMGWYRQEPGKERELVAAISSGASTNYADTVKGRFTISRDNATNTVYLQMNSLKPEDTAVYYFAARLYARRLYDYWGQGSQVTVSS | low polyreactivity |
| QVQIVESGGGLVQAGGSLRLTCAASGSTLTIYARGWYRQAPGKERDLVAAISRSGGRTYYADSVKGRFTISRDYAKNTVYLQMNSLKPEDTAVYYCAARGWSYRSVGYMDYWGQGTQVTVSS | high polyreactivity |
| QVQIVESGGGLVQAGGSLRLTCAASGYIFTYYAMGWYRQAPWKERDLVAAISGSDGNTYYADSVKGRFTISRDNAKNTVYLQMNSLKPEDTAVYYCAKSGGLTFRSQSYDYWGQGTQVTVSS | low polyreactivity |
| QVQIVESGGGLVQAGGSLRVSCAASGFTFDENAMGWYRQAPGINYSGASTYYADSVKGRFTISRDNAKNTVYLQMNSVKQDDTAVYYCAAEVVAQMNYWGQGTQVTVSS | low polyreactivity |
| QVQIVESGGGLVQAGGSLSLSCAASGFIFSVNDMGWYRQAPGKERELVAAISRDSGSKYYADSVKGRFTISRDNAQNSVYLEMISLKPEDTAVYDCNGEGQWVWDPYGVYDDDSYNYWGQGTQVTVSS | low polyreactivity |
| QVQIVESGGGLVQAGRSLRLSCAASGSTFEFYAMGWYRQAPGKEREFVAGITSSGVTTYYADSVKGRFTISRDNAKYTVYLQMNSLKPVDTAVYYCAATDVVYSWFFLVYIPYDYWGQGTQVTVSS | low polyreactivity |
